Laboratory results taken from patent EP4810056A2.

Target: PD-1 (programmed death 1) on peripheral CD4 T cells of treated subjects (human) (UniProt Q15116)
Assay: flow cytometry of free PD-1 on CD4 T cells of subjects after IV MEDI5752 (receptor occupancy, in vivo dosing >225 mg)

Chain of UniProt Q15116 (Q15116 25-288): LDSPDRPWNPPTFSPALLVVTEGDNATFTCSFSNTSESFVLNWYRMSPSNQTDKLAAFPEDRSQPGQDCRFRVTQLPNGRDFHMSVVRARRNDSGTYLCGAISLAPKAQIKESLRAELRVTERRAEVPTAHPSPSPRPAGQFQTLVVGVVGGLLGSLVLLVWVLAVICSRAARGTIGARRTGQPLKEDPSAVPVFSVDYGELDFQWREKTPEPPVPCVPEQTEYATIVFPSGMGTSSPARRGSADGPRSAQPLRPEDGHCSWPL

## MEDI5752 (bispecific antibody)
  peripheral PD-1 receptor occupancy: > 90%
